Laboratory results reported in article PMC5589196 (Cell, 2016).
One block for each binder: values may come before it.

B5: Tfg3 (natural protein, S. cerevisiae, UniProt P35189 1-244, looked up)
chain: MVATVKRTIRIKTQQHILPEVPPVENFPVRQWSIEIVLLDDEGKEIPATIFDKVIYHLHPTFANPNRTFTDPPFRIEEQGWGGFPLDISVFLLEKAGERKIPHDLNFLQESYEVEHVIQIPLNKPLLTEELAKSGSTEETTANTGTIGKRRTTTNTTAEPKAKRAKTGSASTVKGSVDLEKLAFGLTKLNEDDLVGVVQMVTDNKTPEMNVTNNVEEGEFIIDLYSLPEGLLKSLWDYVKKNTE

Key:
Med5 = biological target: T1, Med5 (S. cerevisiae, UniProt P53114 1-1132); assay: cross-linking
T1 sequence (looked up): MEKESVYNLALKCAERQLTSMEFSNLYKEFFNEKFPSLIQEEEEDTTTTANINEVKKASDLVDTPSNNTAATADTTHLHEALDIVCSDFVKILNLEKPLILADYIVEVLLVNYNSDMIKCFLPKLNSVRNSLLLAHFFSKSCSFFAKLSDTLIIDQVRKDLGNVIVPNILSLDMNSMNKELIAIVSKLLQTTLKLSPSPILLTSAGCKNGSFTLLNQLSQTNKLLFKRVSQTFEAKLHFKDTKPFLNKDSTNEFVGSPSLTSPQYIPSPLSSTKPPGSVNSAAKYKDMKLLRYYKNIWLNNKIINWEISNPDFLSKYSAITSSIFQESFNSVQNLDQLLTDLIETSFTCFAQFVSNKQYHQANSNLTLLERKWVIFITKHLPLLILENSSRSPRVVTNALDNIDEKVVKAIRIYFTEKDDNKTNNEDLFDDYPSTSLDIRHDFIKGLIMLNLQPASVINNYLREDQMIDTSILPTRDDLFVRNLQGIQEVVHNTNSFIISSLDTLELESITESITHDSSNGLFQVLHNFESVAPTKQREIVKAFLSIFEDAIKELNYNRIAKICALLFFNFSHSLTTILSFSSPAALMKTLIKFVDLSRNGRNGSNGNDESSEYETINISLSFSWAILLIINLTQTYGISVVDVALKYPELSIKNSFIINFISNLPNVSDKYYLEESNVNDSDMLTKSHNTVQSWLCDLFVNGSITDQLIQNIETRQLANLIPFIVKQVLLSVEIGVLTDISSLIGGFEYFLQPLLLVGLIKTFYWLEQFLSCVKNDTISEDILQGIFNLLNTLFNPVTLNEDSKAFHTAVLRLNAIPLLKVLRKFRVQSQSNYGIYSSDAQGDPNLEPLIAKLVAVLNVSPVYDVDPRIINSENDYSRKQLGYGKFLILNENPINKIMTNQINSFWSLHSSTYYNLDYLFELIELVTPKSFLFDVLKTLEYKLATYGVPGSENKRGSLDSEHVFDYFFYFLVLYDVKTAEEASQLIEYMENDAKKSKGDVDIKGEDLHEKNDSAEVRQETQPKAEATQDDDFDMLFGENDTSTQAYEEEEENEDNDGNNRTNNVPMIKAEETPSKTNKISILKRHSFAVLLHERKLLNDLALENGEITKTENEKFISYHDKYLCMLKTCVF

Tfg3 = biological target: B5; assay: cross-linking + cryo-EM structure
Rad3 = biological target: T2, Rad3 (S. cerevisiae, UniProt P06839 1-778); assay: cross-linking
T2 sequence (looked up): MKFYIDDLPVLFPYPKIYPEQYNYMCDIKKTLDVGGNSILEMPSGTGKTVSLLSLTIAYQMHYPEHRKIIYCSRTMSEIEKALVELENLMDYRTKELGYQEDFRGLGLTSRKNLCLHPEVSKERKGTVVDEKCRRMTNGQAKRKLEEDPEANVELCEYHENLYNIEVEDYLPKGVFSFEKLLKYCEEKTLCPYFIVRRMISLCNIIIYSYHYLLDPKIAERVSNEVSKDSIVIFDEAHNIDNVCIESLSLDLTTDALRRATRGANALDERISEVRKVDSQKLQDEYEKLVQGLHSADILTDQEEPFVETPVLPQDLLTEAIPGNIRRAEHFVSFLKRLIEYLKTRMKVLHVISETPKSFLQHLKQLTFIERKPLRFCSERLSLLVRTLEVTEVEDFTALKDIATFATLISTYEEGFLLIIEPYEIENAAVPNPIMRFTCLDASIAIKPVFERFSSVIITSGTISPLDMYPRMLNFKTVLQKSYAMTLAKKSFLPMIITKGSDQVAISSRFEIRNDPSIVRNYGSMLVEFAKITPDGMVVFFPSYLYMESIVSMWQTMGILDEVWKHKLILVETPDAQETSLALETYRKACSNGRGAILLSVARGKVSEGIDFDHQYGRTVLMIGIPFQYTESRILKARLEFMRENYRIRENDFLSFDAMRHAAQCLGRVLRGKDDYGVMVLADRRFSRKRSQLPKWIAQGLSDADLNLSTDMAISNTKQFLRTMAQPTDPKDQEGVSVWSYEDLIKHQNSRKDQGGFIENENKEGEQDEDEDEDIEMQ

TFIIF = biological target: T3, TFIIF (S. cerevisiae, UniProt P41895 1-735; P41896 1-400; P35189 1-244); assay: cross-linking
T3 sequence (looked up) 1: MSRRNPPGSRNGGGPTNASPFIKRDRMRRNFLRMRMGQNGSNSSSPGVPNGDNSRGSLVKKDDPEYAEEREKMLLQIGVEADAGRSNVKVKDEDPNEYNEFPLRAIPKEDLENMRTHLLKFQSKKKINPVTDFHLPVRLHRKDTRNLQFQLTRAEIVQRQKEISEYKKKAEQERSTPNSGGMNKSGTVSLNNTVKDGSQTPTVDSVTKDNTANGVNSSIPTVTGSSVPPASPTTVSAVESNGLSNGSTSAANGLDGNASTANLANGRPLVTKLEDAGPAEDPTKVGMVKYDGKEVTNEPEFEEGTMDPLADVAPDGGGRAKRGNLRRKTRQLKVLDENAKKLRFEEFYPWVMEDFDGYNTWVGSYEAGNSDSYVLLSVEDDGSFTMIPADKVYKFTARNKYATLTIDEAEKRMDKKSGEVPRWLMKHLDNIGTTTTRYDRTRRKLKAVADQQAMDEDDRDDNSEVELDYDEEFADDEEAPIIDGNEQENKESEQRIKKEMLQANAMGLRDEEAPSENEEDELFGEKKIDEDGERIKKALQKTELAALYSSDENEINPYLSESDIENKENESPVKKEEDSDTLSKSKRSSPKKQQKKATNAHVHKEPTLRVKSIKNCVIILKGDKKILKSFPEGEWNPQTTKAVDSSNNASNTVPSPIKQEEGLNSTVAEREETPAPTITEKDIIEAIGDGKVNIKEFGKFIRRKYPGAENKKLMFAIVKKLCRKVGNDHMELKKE
T3 sequence (looked up) 2: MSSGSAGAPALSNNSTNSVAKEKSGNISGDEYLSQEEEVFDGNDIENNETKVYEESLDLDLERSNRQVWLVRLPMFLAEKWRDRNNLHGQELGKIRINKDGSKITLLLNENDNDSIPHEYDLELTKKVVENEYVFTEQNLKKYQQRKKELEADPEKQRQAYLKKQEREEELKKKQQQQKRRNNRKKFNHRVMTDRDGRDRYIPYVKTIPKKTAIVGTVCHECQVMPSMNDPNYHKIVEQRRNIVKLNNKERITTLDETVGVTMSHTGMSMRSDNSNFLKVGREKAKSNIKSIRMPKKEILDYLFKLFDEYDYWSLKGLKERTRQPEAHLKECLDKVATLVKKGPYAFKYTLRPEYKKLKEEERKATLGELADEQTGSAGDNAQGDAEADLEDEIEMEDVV
T3 sequence (looked up) 3: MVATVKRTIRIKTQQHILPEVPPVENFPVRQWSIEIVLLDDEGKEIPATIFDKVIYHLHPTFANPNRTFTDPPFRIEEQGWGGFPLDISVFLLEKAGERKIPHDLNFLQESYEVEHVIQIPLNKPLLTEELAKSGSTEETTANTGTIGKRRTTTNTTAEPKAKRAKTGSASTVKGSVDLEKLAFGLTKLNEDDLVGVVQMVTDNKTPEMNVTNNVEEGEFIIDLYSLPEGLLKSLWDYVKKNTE

Tfg1 = biological target: T4, Tfg1 (S. cerevisiae, UniProt P41895 1-735); assay: cross-linking + cryo-EM structure
T4 sequence (looked up): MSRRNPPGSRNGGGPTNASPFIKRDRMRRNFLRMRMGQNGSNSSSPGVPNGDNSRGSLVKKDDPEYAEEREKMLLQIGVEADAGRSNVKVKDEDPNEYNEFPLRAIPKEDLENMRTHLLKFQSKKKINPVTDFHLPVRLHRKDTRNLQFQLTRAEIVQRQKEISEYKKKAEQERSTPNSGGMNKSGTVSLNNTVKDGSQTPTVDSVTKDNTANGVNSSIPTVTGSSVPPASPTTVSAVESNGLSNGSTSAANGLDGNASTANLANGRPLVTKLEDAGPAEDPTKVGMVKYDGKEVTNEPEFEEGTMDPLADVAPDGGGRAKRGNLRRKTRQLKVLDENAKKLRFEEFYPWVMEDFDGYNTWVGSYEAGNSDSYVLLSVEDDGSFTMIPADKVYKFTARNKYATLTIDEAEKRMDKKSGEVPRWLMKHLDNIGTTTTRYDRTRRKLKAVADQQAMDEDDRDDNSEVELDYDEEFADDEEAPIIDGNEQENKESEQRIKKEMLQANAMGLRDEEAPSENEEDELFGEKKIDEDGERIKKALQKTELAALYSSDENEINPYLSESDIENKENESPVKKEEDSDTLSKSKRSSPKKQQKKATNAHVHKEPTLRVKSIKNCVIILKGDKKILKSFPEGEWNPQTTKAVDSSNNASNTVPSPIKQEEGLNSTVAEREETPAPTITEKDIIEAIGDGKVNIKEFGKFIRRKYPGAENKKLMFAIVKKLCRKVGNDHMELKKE

B1: Med1 (natural protein, S. cerevisiae, UniProt Q12321 1-566, looked up)
chain: MVEGDSYVETLDSMIELFKDYKPGSITLENITRLCQTLGLESFTEELSNELSRLSTASKIIVIDVDYNKKQDRIQDVKLVLASNFDNFDYFNQRDGEHEKSNILLNSLTKYPDLKAFHNNLKFLYLLDAYSHIESDSTSHNNGSSDKSLDSSNASFNNQGKLDLFKYFTELSHYIRQCFQDNCCDFKVRTNLNDKFGIYILTQGINGKEVPLAKIYLEENKSDSQYRFYEYIYSQETKSWINESAENFSNGISLVMEIVANAKESNYTDLIWFPEDFISPELIIDKVTCSSNSSSSPPIIDLFSNNNYNSRIQLMNDFTTKLINIKKFDISNDNLDLISEILKWVQWSRIVLQNVFKLVSTPSSNSNSSELEPDYQAPFSTSTKDKNSSTSNTEPIPRSNRHGSVVEASRRRRSSTNKSKRPSITEAMMLKEEGLQQFNLHEILSEPAIEEENGDSIKEHSTTMDGANDLGFTASVSNQENAGTDIVMEDHGVLQGTSQNYGTATADDADIEMKDVSSKPSKPESSVLQLIVSEDHIILDTISECNLYDDVKCWSKFIEKFQDIVS
binding result (Med5): binds

B2: Rpb9 (natural protein, S. cerevisiae, UniProt P27999 1-122, looked up)
chain: MTTFRFCRDCNNMLYPREDKENNRLLFECRTCSYVEEAGSPLVYRHELITNIGETAGVVQDIGSDPTLPRSDRECPKCHSRENVFFQSQQRRKDTSMVLFFVCLSCSHIFTSDQKNKRTQFS
binding result (Tfg3): binds

Binder: B5
binding result (Tfg1): binds

Now from value to binder:

binding result (Rad3): binds
B3: Tfb3 (natural protein, S. cerevisiae, UniProt Q03290 1-321, looked up)
chain: MLMDEYEENKDMCPICKTDRYLSPDVKFLVNPECYHRICESCVDRIFSLGPAQCPYKGCDKILRKNKFKTQIFDDVEVEKEVDIRKRVFNVFNKTIDDFNGDLVEYNKYLEEVEDIIYKLDHGIDVAKTEEKLRTYEELNKQLIMNNLERSRTEIESFEQRQKFEKEMKLKKRLLERQIEEEERMNKEWTKKEIVNRLSTTTQDINETIEGVKNTVKLKKSSARRKLEELNRVLKNNPYFNSNVNVQNSRLKDAVPFTPFNGDREAHPRFTLKGSVYNDPFIKDLEHRKEFIASGFNTNYAYERVLTEAFMGLGCVISEEL

binding result (TFIIF): binds
B4: TFIIE (complex, S. cerevisiae)
chain 1: MDRPIDDIVKNLLKFVVRGFYGGSFVLVLDAILFHSVLAEDDLKQLLSINKTELGPLIARLRSDRLISIHKQREYPPNSKSVERVYYYVKYPHAIDAIKWKVHQVVQRLKDDLDKNSEPNGYMCPICLTKYTQLEAVQLLNFDRTEFLCSLCDEPLVEDDSGKKNKEKQDKLNRLMDQIQPIIDSLKKIDDSRIEENTFEIALARLIPPQNQSHAAYTYNPKKGSTMFRPGDSAPLPNLMGTALGNDSSRRAGANSQATLHINITTASDEVAQRELQERQAEEKRKQNAVPEWHKQSTIGKTALGRLDNEEEFDPVVTASAMDSINPDNEPAQETSYQNNRTLTEQEMEERENEKTLNDYYAALAKKQAKLNKEEEEEEEEEEDEEEEEEEEMEDVMDDNDETARENALEDEFEDVTDTAGTAKTESNTSNDVKQESINDKTEDAVNATATASGPSANAKPNDGDDDDDDDDDEMDIEFEDV
chain 2: MSKNRDPLLANLNAFKSKVKSAPVIAPAKVGQKKTNDTVITIDGNTRKRTASERAQENTLNSAKNPVLVDIKKEAGSNSSNAISLDDDDDDEDFGSSPSKKVRPGSIAAAALQANQTDISKSHDSSKLLWATEYIQKKGKPVLVNELLDYLSMKKDDKVIELLKKLDRIEFDPKKGTFKYLSTYDVHSPSELLKLLRSQVTFKGISCKDLKDGWPQCDETINQLEEDSKILVLRTKKDKTPRYVWYNSGGNLKCIDEEFVKMWENVQLPQFAELPRKLQDLGLKPASVDPATIKRQTKRVEVKKKRQRKGKITNTHMTGILKDYSHRV
